Results from publication PMC12328707, “Potassium binding by carbonyl clusters, halophilic adaptation and catalysis of Haloferax mediterranei D-2-hydroxyacid dehydrogenase” (Communications Biology, 2025).

Experiments:
Assay in all cases: purified protein
Type in all cases: biochemical, Haloferax mediterranei
purified protein [1] = substrate: CCCCC(=O)C(=O)O; conditions: 0.25 mM NADPH, 4 M KCl, 50 mM HEPES pH 8.0, 22 °C
purified protein [2] = substrate: NC(=O)C1=CN([C@@H]2O[C@H](COP(=O)(O)OP(=O)(O)OC[C@H]3O[C@@H](n4cnc5c(N)ncnc54)[C@H](O)[C@@H]3O)[C@@H](O)[C@H]2O)C=CC1; conditions: 20 mM 2-ketohexanoic acid, 4 M KCl, 50 mM HEPES pH 8.0, 22 °C, varied: cofactor
purified protein [3] = substrate: NC(=O)C1=CN([C@@H]2O[C@H](COP(=O)(O)OP(=O)(O)OC[C@H]3O[C@@H](n4cnc5c(N)ncnc54)[C@H](OP(=O)(O)O)[C@@H]3O)[C@@H](O)[C@H]2O)C=CC1; conditions: 4 mM 2-ketohexanoic acid, 4 M KCl, 50 mM HEPES pH 8.0, 22 °C, varied: cofactor

B1: D2HDH (Haloferax mediterranei ATCC 33500) (protein)
chain: MHIERLAVDESVGRAMPPQRFIEALSDLGVPVEFAGEDEQFGPGDAVASFGHRDAFLDADWVHCIRAGYDEFPVGVYEEAGTYLTNSTGIHGTTVGETVAGYMLTFARRLHAYRDAQHDHAWDLPRYEEPFTLAGERVCVVGLGTLGRGVVDRAAALGMEVVGVRRSGDPVDNVSTVYTPDRLHEAIADARFVVLATPLTDETEGMVAAPEFETMREDASLVNVARGPVVVESDLVAALDSGDIAGAALDVFSEEPLPEDSPLWDFEDVLITPHVSAATSKYHEDVAALIRENIEKIATGDELTNRVV
notes: homodimer (~66 kDa; 79 kDa by gel filtration); residues 1-308; no tag mentioned
Purified protein [1]
  Km: 460 ± 30 µM
  Vmax: 2.5 µmol/min/mg
  kcat: 1.38 ± 0.0333 s⁻¹
  kcat/Km: 3000 M⁻¹ s⁻¹
Purified protein [2]
  Km: 97 ± 18 µM
  Vmax: 4.4 µmol/min/mg
  kcat: 2.48 ± 0.167 s⁻¹
  kcat/Km: 25600 M⁻¹ s⁻¹
Purified protein [3]
  Km: 14 ± 4 µM
  Vmax: 2.5 µmol/min/mg
  kcat: 1.38 ± 0.0667 s⁻¹
  kcat/Km: 98800 M⁻¹ s⁻¹
